Earlier results on one substance are cited in article PMC2613885.

In this series the target is Robo1 (Homo sapiens) (UniProt Q9Y6N7).
Robo1 (Homo sapiens), sequence (Q9Y6N7 26-897): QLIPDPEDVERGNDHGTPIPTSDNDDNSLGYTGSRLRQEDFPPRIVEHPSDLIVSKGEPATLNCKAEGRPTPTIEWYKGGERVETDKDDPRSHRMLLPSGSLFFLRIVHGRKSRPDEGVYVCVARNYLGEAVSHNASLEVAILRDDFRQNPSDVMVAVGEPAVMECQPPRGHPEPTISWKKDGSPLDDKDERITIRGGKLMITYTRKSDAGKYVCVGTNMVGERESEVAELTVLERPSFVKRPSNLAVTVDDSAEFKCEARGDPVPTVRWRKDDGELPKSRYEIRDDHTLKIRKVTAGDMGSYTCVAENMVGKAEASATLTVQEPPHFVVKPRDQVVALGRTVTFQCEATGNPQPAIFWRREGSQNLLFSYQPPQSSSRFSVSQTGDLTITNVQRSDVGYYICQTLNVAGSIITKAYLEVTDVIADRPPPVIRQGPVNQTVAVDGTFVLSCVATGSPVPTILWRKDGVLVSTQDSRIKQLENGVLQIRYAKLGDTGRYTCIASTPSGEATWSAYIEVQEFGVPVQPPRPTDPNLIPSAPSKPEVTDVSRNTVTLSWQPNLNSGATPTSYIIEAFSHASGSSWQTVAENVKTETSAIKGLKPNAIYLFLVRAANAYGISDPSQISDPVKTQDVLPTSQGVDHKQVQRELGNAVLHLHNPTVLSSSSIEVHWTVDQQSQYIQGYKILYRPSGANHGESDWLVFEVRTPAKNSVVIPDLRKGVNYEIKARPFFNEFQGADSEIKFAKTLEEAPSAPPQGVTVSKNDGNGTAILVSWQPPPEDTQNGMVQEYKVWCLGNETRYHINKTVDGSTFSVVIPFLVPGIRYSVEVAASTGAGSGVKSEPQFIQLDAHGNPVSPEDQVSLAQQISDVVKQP

Slit2, sequence (O94813 31-1529): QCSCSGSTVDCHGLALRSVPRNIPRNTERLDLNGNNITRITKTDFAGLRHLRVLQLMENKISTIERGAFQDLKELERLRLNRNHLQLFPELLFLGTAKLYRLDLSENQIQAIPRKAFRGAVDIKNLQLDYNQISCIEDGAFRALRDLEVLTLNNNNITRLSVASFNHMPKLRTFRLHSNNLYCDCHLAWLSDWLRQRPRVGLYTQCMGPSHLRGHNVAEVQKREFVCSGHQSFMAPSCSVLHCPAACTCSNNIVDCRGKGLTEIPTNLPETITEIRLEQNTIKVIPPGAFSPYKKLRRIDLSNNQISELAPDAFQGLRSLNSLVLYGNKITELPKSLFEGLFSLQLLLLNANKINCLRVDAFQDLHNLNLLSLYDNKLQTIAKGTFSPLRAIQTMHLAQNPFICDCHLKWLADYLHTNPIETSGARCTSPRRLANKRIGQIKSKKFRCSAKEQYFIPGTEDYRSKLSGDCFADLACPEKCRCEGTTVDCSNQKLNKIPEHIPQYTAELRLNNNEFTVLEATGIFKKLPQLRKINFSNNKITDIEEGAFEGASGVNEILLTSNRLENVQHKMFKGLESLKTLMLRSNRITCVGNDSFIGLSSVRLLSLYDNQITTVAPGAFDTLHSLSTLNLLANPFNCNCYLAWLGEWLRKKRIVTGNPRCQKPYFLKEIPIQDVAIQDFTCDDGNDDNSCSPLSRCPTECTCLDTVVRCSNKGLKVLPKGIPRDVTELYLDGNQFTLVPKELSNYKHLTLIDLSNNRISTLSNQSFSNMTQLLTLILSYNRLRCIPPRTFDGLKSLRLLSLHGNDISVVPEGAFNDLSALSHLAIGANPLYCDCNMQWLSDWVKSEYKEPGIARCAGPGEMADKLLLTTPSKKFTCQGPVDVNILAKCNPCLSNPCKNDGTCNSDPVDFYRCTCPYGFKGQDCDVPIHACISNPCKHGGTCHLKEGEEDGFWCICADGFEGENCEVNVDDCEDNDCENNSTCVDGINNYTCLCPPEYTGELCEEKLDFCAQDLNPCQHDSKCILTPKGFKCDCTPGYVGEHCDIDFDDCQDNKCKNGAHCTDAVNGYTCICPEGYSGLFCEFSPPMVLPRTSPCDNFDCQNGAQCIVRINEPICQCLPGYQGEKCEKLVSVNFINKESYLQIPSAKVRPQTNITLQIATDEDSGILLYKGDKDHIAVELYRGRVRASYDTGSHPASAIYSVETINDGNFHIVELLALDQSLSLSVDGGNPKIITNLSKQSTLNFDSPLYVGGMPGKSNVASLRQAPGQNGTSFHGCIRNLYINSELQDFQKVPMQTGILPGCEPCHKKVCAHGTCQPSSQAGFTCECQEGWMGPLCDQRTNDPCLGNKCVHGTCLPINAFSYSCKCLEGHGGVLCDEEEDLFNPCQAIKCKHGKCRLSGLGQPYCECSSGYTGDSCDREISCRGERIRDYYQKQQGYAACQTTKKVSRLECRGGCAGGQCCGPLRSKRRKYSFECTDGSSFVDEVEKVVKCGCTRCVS

With Slit2 (from UniProt O94813), the dissociation constant Kd was 9 nM.
